Measurements published in article PMC11272940, “UNC-45 assisted myosin folding depends on a conserved FX3HY motif implicated in Freeman Sheldon Syndrome” (Nature Communications, 2024).

B1: Myo4 peptide (residues 561–573) (peptide)
peptide: WKFIVSHYAVDVEY
notes: tryptophan introduced at the N-terminus for peptide quantification; also called myosin peptide; core of the myosin motif; source: synthetic peptide (in-house, HPLC purified)
B2: C. elegans myosin motor domain MHC-B (1-790), wildtype (domain or fragment, UniProt P02566 1-790, looked up)
chain: MEHEKDPGWQYLRRTREQVLEDQSKPYDSKKNVWIPDPEEGYLAGEITATKGDQVTIVTARGNEVTLKKELVQEMNPPKFEKTEDMSNLSFLNDASVLHNLRSRYAAMLIYTYSGLFCVVINPYKRLPIYTDSCARMFMGKRKTEMPPHLFAVSDEAYRNMLQDHENQSMLITGESGAGKTENTKKVICYFAAVGASQQEGGAEVDPNKKKVTLEDQIVQTNPVLEAFGNAKTVRNNNSSRFGKFIRIHFNKHGRLASCDIEHYLLEKSRVIRQAPGERCYHIFYQIYSDFRPELKKELLLDLPIKDYWFVAQAELIIDGIDDVEEFQLTDEAFDILNFSAVEKQDCYRLMSAHMHMGNMKFKQRPREEQAEPDGTDEAEKASNMYGIGCEEFLKALTKPRVKVGTEWVSKGQNCEQVNWAVGAMAKGLYSRVFNWLVKKCNLTLDQKGIDRDYFIGVLDIAGFEIFDFNSFEQLWINFVNEKLQQFFNHHMFVLEQEEYAREGIQWVFIDFGLDLQACIELIEKPLGIISMLDEECIVPKATDLTLASKLVDQHLGKHPNFEKPKPPKGKQGEAHFAMRHYAGTVRYNCLNWLEKNKDPLNDTVVSAMKQSKGNDLLVEIWQDYTTQEEAAAKAKEGGGGGKKKGKSGSFMTVSMLYRESLNNLMTMLNKTHPHFIRCIIPNEKKQSGMIDAALVLNQLTCNGVLEGIRICRKGFPNRTLHPDFVQRYAILAAKEAKSDDDKKKCAEAIMSKLVNDGSLSEEMFRIGLTKVFFKAGVLAHLEDIRDEKL
notes: MHC-B muscle myosin (Myo4_Cel), C. elegans, motor domain residues 1-790; the state is told by the assay; also called MHC (1-790); Myo4_Cel; source: High Five insect cells, baculovirus; purified (Ni-NTA, SEC) alone or as a complex with UNC-45; not shown: His6, C-terminal, kept
B3: Full length C. elegans UNC-45 (from E. coli) (natural protein, UniProt G5EG62 1-961, looked up)
chain: MVARVQTAEEIRDEGNAAVKDQDYIKADELYTEALQLTTDEDKALRPVLYRNRAMARLKRDDFEGAQSDCTKALEFDGADVKALFRRSLAREQLGNVGPAFQDAKEALRLSPNDKGIVEVLQRLVKANNDKIKQTTSLANKVTDMEKLAFRGEAKDTEQKMTALNNLLVLCRESESGATGVWNQGALVPFVLNLINDASENEEVTVTAIRILDETIKNSVRCMKFLAMHDPDGPKSVRFVCRLMCKKSTKDFVDATGILVQRVFNAMAKMDRQKEMKPDPEVAEANKIWIIRVLLELQEMLQDPKVGAVQRETCIDLFLKNLMHMDGGIPRGWSWKFVEERGLLALLDVASQIPELCEYPVSAETRQHVAICLQRLEEDMVFDTKRTIFKEKVDMFFNALISRCTNDDEGHKYRIKLSCFLITMLQGPVDIGINLITNDQLTPIMLEMAASQDHLMQGIAAELIVATVSKHERAINMLKVGIPVLRALYDSEDPTVKVRALVGLCKIGAAGGDDISKATMKEEAVISLAKTCKKFLLETEKYSVDIRRYACEGLSYLSLDADVKEWIVDDSLLLKALVLLAKKAGALCVYTLATIYANLSNAFEKPKVDEEMVKLAQFAKHHVPETHPKDTEEYVEKRVRALVEEGAVPACVAVSKTESKNALELIARSLLAFAEYEDLRGRIIAEGGTVLCLRLTKEASGEGKIKAGHAIAKLGAKADPMISFPGQRAYEVVKPLCDLLHPDVEGKANYDSLLTLTNLASVSDSIRGRILKEKAIPKIEEFWFMTDHEHLRAAAAELLLNLLFFEKFYEETVAPGTDRLKLWVLYSAEVEEERLSRASAAGFAILTEDENACARIMDEIKSWPEVFKDIAMHEDAETQRRGLMGIANIMHSSNKLCSEIVSSEVFRVLVAVTKLGTINQERAGSTEQAKRGLEAAEKFGLIKATDREIYERENQMSTIQE
notes: UNC-45 chaperone, C. elegans; The C-terminal Strep tag is stated for the peptide spot assay; also called wildtype UNC-45; purified UNC-45; source: E. coli, purified (HisTrap or StrepTrap, SEC); not shown: Strep, C-terminal, kept

Legend:
[1] = biological target: T1, Kluyveromyces lactis SHE4, wildtype (Kluyveromyces lactis); test: ITC; 25 °C, VP-ITC; 10 μM SHE4 in the cell, 90 μM (N475A: 107 μM) peptide in the syringe; 10 mM HEPES pH 8.0, 150 mM NaCl, 1 mM TCEP; single site model; conditions: both partners purified
T1 chain: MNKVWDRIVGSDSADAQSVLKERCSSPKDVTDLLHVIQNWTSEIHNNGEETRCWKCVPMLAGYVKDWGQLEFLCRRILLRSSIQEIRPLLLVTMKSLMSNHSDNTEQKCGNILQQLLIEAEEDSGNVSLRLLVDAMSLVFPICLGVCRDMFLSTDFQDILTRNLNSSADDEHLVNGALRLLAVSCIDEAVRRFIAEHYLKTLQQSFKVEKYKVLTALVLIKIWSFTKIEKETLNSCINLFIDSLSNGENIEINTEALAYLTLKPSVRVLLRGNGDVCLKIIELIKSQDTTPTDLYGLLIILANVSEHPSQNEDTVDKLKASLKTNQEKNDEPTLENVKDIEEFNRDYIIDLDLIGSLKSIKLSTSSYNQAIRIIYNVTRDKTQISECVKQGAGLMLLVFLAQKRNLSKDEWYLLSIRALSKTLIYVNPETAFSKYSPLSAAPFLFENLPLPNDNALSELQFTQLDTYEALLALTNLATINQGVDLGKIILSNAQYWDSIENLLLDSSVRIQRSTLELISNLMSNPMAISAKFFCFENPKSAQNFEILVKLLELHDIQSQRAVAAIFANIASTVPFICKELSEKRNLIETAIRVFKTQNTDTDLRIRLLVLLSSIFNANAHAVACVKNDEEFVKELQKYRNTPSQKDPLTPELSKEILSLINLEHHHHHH

[2] = biological target: B3; test: cross-linking; XL-MS of the in vitro reconstituted UFD-2:UNC-45:myo^UF complex; 0.25 mM DSS, 20 mM HEPES pH 8.0, 150 mM NaCl, 25 °C, 30 min; conditions: both partners purified
[3] = biological target: T2, C. elegans UNC-45 (co-expressed with the MHC-B motor domain in insect cells) (C. elegans, UniProt G5EG62 1-961); test: tandem affinity co-purification + SEC; co-expressed in insect cells; HisTrap (myosin) then Strep-Tactin (UNC-45), then Superdex 200 in 20 mM HEPES pH 8.0, 150 mM NaCl; conditions: partners not purified
T2 construct: UNC-45 chaperone, C. elegans; also called UNC-45 WT; wildtype UNC-45; source: High Five insect cells, baculovirus, co-expressed with myosin; purified as a complex (HisTrap, Strep-Tactin, SEC); in cleared lysate in the solubility assay
T2 sequence: B3 chain

[4] = biological target: T3, 547–588 myosin peptide (MHC-B) (C. elegans, UniProt P02566 547-588); test: thermal shift assay; 1 μM UNC-45 or UNC-45 ΔUCS, 2 mM peptide, SYPRO Orange, 20 mM HEPES pH 8.0, 150 mM NaCl; triplicates; conditions: both partners purified
T3 construct: also called native peptide; identified myosin ligand; source: synthetic peptide
T3 peptide (looked up): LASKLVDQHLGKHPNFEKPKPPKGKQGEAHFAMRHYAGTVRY

## B1
[1]
  Kd: 600 nM

## B2
[2]
  binding result: binds
[3]
  binding result: binds

## B3
[4]
  increase of melting temperature (Tm): 5.5 °C
